Assay [1] addresses T1, hydrogenated KaiC, phosphorylation mimic S431D (Synechococcus elongatus PCC 7942, UniProt Q79PF4 1-519, S431D).
T1 construct: Clock protein KaiC from Synechococcus elongatus PCC 7942, phosphorylation site S431 substituted with aspartate; KaiB and KaiC were mixed at a molar ratio of 12:6, and M from I(0) of hC alone is 334 ± 11 kDa; The buffer contained 3 mM ATP and 5 mM MgCl2; also called hC; h-KaiC; source: expressed and purified as previously described
T1 sequence (looked up): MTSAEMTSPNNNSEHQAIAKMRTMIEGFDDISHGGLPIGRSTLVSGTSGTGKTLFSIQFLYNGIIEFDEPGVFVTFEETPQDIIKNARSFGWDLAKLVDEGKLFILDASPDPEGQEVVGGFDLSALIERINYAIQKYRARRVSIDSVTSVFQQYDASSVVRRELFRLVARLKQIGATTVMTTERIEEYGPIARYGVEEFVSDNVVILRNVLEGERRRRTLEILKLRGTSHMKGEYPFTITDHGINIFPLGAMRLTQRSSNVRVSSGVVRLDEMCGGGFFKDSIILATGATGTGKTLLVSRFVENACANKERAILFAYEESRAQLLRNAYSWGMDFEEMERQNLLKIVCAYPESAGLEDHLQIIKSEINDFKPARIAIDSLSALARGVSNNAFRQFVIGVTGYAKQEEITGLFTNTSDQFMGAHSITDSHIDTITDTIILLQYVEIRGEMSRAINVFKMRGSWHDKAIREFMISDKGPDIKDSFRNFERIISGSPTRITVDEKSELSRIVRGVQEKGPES
In words: SEC; KaiB and KaiC mixed at a molar ratio of 12:6 and incubated at 303 K for 48 h; Superdex 200 Increase 10/300 GL, 0.5 mL/min; 98% D2O buffer with 50 mM sodium phosphate pH 7.8, 150 mM NaCl, 5 mM MgCl2, 0.5 mM EDTA, 1 mM DTT, 3 mM ATP, 50 mM glutamic acid, 50 mM arginine. The conditions noted are these: both partners purified.

The target in assay [2] is T1, hydrogenated KaiC, phosphorylation …. In words: SEC-SANS; BC complex fraction from SEC stored in the SANS cell (stopping mode), 298 K, 98% D2O clock protein buffer; compared with hC alone. The conditions noted are these: both partners purified.

B1: 71% deuterated KaiB (natural protein, Synechococcus elongatus PCC 7942, UniProt Q79PF5 1-102, looked up)
chain: MSPRKTYILKLYVAGNTPNSVRALKTLKNILEVEFQGVYALKVIDVLKNPQLAEEDKILATPTLAKVLPLPVRRIIGDLSDREKVLIGLDLLYGELQDSDDF
modifications: partially deuterated; degree of deuteration 71% (MALDI-TOF mass spectrometry)
notes: Clock protein KaiB from Synechococcus elongatus PCC 7942; also called 71dB; 71d-KaiB; source: bacterial cells grown in M9 minimal H2O/D2O mixture media with hydrogenated and deuterated glucose, purified
On to B1, for which the binding result in assay [1] was “binds”.

B2: hydrogenated KaiB (natural protein, Synechococcus elongatus PCC 7942, UniProt Q79PF5 1-102, looked up)
chain: B1 chain
notes: Clock protein KaiB from Synechococcus elongatus PCC 7942; also called hB; h-KaiB; source: expressed and purified as previously described
As for B2, in assay [2], the binding result is reported as “binds”.

The values above are taken from article PMC11957415, “Size-exclusion chromatography–small-angle neutron scattering system optimized for an instrument with medium neutron flux” (Journal of Applied Crystallography, 2025).
